Measured values taken from US20020086018A1 (published 2002).

Target: T1, hTACI-Fc (soluble human TACI-Fc receptor fusion protein) (human, UniProt O14836 1-165)
T1 construct: also called shTACI-Fc; sTACI
T1 sequence: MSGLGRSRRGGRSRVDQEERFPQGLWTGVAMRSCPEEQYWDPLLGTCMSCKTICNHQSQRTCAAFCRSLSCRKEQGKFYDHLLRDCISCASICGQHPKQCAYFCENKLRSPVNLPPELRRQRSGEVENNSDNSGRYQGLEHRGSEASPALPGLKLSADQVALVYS
Assay: BIAcore 2000; TACI-Fc immobilised on CM5, Flag-APRIL as analyte, 1:1 Langmuir model

Kd: 1.48 nM
B1: Soluble murine APRIL-Flag protein (FLAG-tagged soluble mouse G70) (ligand)
chain: KHKKKHSVLHLVPVNITSKADSDVTEVMWQPVLRRGRGLEAQGDIVRVWDTGIYLLYSQVLFHDVTFTMGQVVSREGQGRRETLFRCIRSMPSDPDRAYNSCYSAGVFHLHQGDIITVKIPRANAKLSLSPHGTFLGFV
